Data on seven substances can be found in article PMC11240984.

The nature of data set [1]: viscosity measurement (falling ball micro viscometer); Tpm 1 mg/mL in 30 mM Hepes-Na pH 7.3, NaCl from 30 to 200 mM, 4 mM DTT, 20 °C; excess viscosity over buffer as measure of end-to-end interactions between adjacent Tpm molecules. The settings on record: other: viscosity measurement (falling ball micro viscometer).
Data set [2] concerns the target F-actin (fibrillar actin from rabbit skeletal muscle) (rabbit) (UniProt P68135). Briefly: light scattering on heating (thermally induced dissociation of Tpm from F-actin); 20 µM phalloidin-stabilized F-actin and 10.5 µM Tpm (legend: 10 µM) in 30 mM Hepes-Na pH 7.3, 100 mM NaCl; heated to 65 °C at 1 °C/min; 350 nm, 90°; T_diss = temperature of 50% decrease in light scattering.

Data set [3] shares this target.
Data set [4] shares this target. As to the kind of experiment: co-sedimentation; 10 µM F-actin with 0.5 to 7.5 µM Tpm in 30 mM Hepes-Na pH 7.3, 200 mM NaCl; pelleted at 100,000 x g; SDS-PAGE of pellet and supernatant; apparent affinity, K50% = free Tpm at half-saturation of actin.

As to “AS-Tpm1.9, Tpm1.9 with N-terminal Ala-Ser extension”, in data set [1], the “excess viscosity at 30 mM NaCl” value was “approximately 2.25 mPa·s for 30 mM NaCl” and the “excess viscosity at 200 mM NaCl” value was “close to 0.5 mPa·s for 200 mM NaCl”.
“Tpm1.8, cytoplasmic tropomyosin isoform (human, TPM1 gene product) (natural protein)” registered a T diss (temperature of half-dissociation of Tpm from F-actin) in data set [2] of 44.4 °C. The bending stiffness of Tpm–F-actin filaments, two-beam optical trap, median (IQT, N); F-actin alone 2.35 in data set [3] stood at 3.75e-26 N∙m^2. Besides, the K50% in data set [4] was found to be 0.3 µM.
With “AS-Tpm1.8, Tpm1.8 with N-terminal Ala-Ser extension (natural protein)”, the T diss (temperature of half-dissociation of Tpm from F-actin) in data set [2] stood at 44.4 °C. The bending stiffness of Tpm–F-actin filaments, two-beam optical trap, median (IQT, N); F-actin alone 2.35 in data set [3] worked out at 8.1e-26 N∙m^2. For the same substance, in data set [4], the K50% is 0.59 µM.
Turning to “Tpm1.9, cytoplasmic tropomyosin isoform (human, TPM1 gene product)”, in data set [1], the “excess viscosity at 30 mM NaCl” value is listed as “approximately 2.25 mPa·s for 30 mM NaCl”, the “excess viscosity at 200 mM NaCl” value was “close to 0.5 mPa·s for 200 mM NaCl” and the solution viscosity at 200 mM NaCl is 0.886 mPa·s.
“AS-Tpm1.9, Tpm1.9 with N-terminal Ala-Ser extension (natural protein)”: in data set [2], the T diss (temperature of half-dissociation of Tpm from F-actin) is 47 °C. The bending stiffness of Tpm–F-actin filaments, two-beam optical trap, median (IQT, N); F-actin alone 2.35 in data set [3] is 4.7e-26 N∙m^2. Moreover, the K50% in data set [4] was 0.98 µM.
In data set [1], “Tpm1.8, cytoplasmic tropomyosin isoform (human, TPM1 gene product)” displayed a solution viscosity at 200 mM NaCl of 0.593 mPa·s.
In data set [2], “Tpm1.9, cytoplasmic tropomyosin isoform (human, TPM1 gene product) (natural protein)” registered a T diss (temperature of half-dissociation of Tpm from F-actin) of 46.2 °C. This substance showed a bending stiffness of Tpm–F-actin filaments, two-beam optical trap, median (IQT, N); F-actin alone 2.35 in data set [3] of 4.8e-26 N∙m^2. The K50% in data set [4] was found to be 0.79 µM.
